In article PMC10014292:

Assays:
Settings in all cases: glycan lost; control: wild type
[1] = whole-cell patch clamp, HEK-293T
[2] = NFAT promoter activity with TRPC6 antagonist
[3] = Nppa, Rcan1 qPCR ± angiotensin II, rat cardiomyocytes
[4] = cycloheximide chase, rate of YFP fluorescence decline

B1: TRPC6: T221A (protein)
parent chain: MSQSPAFGPRRGSSPRGAAGAAARRNESQDYLLMDSELGEDGCPQAPLPCYGYYPCFRGSDNRLAHRRQTVLREKGRRLANRGPAYMFSDRSTSLSIEEERFLDAAEYGNIPVVRKMLEECHSLNVNCVDYMGQNALQLAVANEHLEITELLLKKENLSRVGDALLLAISKGYVRIVEAILSHPAFAEGKRLATSPSQSELQQDDFYAYDEDGTRFSHDVTPIILAAHCQEYEIVHTLLRKGARIERPHDYFCKCNDCNQKQKHDSFSHSRSRINAYKGLASPAYLSLSSEDPVMTALELSNELAVLANIEKEFKNDYKKLSMQCKDFVVGLLDLCRNTEEVEAILNGDVETLQSGDHGRPNLSRLKLAIKYEVKKFVAHPNCQQQLLSIWYENLSGLRQQTMAVKFLVVLAVAIGLPFLALIYWFAPCSKMGKIMRGPFMKFVAHAASFTIFLGLLVMNAADRFEGTKLLPNETSTDNAKQLFRMKTSCFSWMEMLIISWVIGMIWAECKEIWTQGPKEYLFELWNMLDFGMLAIFAASFIARFMAFWHASKAQSIIDANDTLKDLTKVTLGDNVKYYNLARIKWDPSDPQIISEGLYAIAVVLSFSRIAYILPANESFGPLQISLGRTVKDIFKFMVIFIMVFVAFMIGMFNLYSYYIGAKQNEAFTTVEESFKTLFWAIFGLSEVKSVVINYNHKFIENIGYVLYGVYNVTMVIVLLNMLIAMINSSFQEIEDDADVEWKFARAKLWFSYFEEGRTLPVPFNLVPSPKSLFYLLLKLKKWISELFQGHKKGFQEDAEMNKINEEKKLGILGSHEDLSKLSLDKKQVGHNKQPSIRSSEDFHLNSFNNPPRQYQKIMKRLIKRYVLQAQIDKESDEVNEGELKEIKQDISSLRYELLEEKSQNTEDLAELIRELGEKLSMEPNQEETNR
other: channel current, other: percent increase in current [1]: increases | other: antagonist sensitivity [2]: no change | other: response to angiotensin II [3]: no change | degradation_or_half_life [4]: decreases
